Measured values taken from patent publication US11525133 (dated 2022).

Biological target: p53-TPR2
Assay: ITC

Kd: 54 nM
B1: Mdm2 N-terminal domain (other)
chain: SQIPASEQETLVRPKPLLLKLLKSVGAQKDTYTMKEVLFYLGQYIMTKRLYDEKQQHIVYCSNDLLGDLFGVPSFSVKEHRKIYTMIYRNLVVVNQQESSDSGTSVSEN
